Experimental data as given in the supplement of paper PMC10126150.
± gives the standard deviation of the averaged measurements.

What follows are sequences tested on ATP (assay: switch fluorescence ratio, 500 uM ATP over buffer (Cy3 cluster intensity, sum of 5 cycles each) (fold (ratio)); higher = stronger signal-on switching upon ATP binding; sequences stand for … in TCGTCGGCAGCGTCAGATGTGTATAAGAGACAGTTTTTTTTTTTTTTTTTTTTTTTTT…TC). Details: aptamer strand: ATP DNA aptamer (quencher-CACCTGGGGGAGTATTGCGGAGGAAGG + anchor), 100 nM annealed; ATP concentration: 500 uM.
Procedure, shortened: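 Between each of five buffer/ATP cycles, the flow-cell was stripped with NaOH and re-annealed. Each cycle imaged Cy3-labelled switching-strand clusters, annealed to 100 nM quencher-labelled ATP aptamer on a modified Illumina MiSeq flow-cell, first in selection buffer and then after 15 min with 500 uM ATP at 22 °C. The fluorescence ratio is summed target-cycle over summed buffer-cycle Cy3 intensity per cluster, averaged per switch-domain sequence, with clusters outside 100-1000 RFU excluded.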
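Note: ATP exposure 15 min at 22 °C before imaging.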

Sequence | switch fluorescence ratio
GGGGGACGTT | 0.981 ± 0.031
AGGGCAAAAT | 1.02 ± 0.035
CGTTCATGCG | 0.99 ± 0.032
TGATCCGGAG | 1.08 ± 0.038
GGATGCCTTT | 0.977 ± 0.026
CTGTGTGTTA | 0.9816 ± 0.0036
TCCTAGGCGC | 1.126 ± 0.0049
ATAGGATTGC | 0.982 ± 0.011
GGAGATTGGT | 0.983 ± 0.024
TTATCAGTGT | 0.972 ± 0.063
CTGAGGATCG | 0.994 ± 0.034
TTTTGATCAT | 0.98 ± 0.013
CGATACTTGA | 0.99 ± 0.038
GACTGTTAGG | 1.03 ± 0.016
TACGGGGGGT | 1.02 ± 0.026
AGTACCGTTT | 0.968 ± 0.027
TTTTAAAGA | 0.982 ± 0.026
TTTTTAGGTG | 1.27 ± 0.2
CGGTTCATCC | 1.02 ± 0.014
ATGGGTCTGC | 1.16 ± 0.31
TTTGGGTCTT | 1.02 ± 0.013
CTTTAGATGT | 0.98 ± 0.034
TTGTAGAATG | 0.9821 ± 0.0066
GAGCGTAACG | 0.9999 ± 0.0027
GAATGCCTGT | 1.033 ± 0.0065

Sequence | switch fluorescence ratio
AAATTTGGTA | 1.04 ± 0.021
GGCGGTACGG | 1.01 ± 0.0066
GCTTGTTGTA | 0.998 ± 0.015
TTTCGATATT | 0.989 ± 0.019
GCGGTAGCAG | 0.979 ± 0.024
TGATTAGAGG | 1.02 ± 0.1
TTTAGATCGG | 1.01 ± 0.046
TAGATAGAGT | 0.994 ± 0.024
TAAGCATAAG | 1.01 ± 0.027
GGGAATCGGG | 1 ± 0.019
AGAGGTTATG | 0.986 ± 0.041
GGGAAGACCG | 0.9921 ± 0.004
AGGGCAGTAT | 1.06 ± 0.11
TTCATAGCTT | 1.02 ± 0.043
ATGGTATGGT | 0.9855 ± 0.0081
AATGGCAGGA | 0.998 ± 0.016
TGCATGTCTC | 1.43 ± 0.46
TTCAGGGTCC | 1.03 ± 0.035
TCTTGTCGTT | 1.019 ± 0.0077
TGGGTGTTAA | 0.974 ± 0.055
ACTGAGGGTA | 1.04 ± 0.027
GCTGTCCGGA | 1.048 ± 0.0054
TGGTGGGGGA | 0.987 ± 0.015
TGTTTGATTT | 0.975 ± 0.019
TGAAAGCACA | 1.11 ± 0.06

Sequence | switch fluorescence ratio
CCACTGGGTA | 1.054 ± 0.0042
TAATTGGAGA | 0.989 ± 0.014
CAAATGGGAA | 0.99 ± 0.016
AGGGGTGGTC | 1.04 ± 0.017
ATCTGTGAGG | 1.019 ± 0.0063
ATGCTTATTG | 0.973 ± 0.015
CCAGTGTTCT | 1.01 ± 0.024
GTTTGCAAAT | 0.991 ± 0.034
GGTTGTTTCG | 0.969 ± 0.038
AGAAGGTGTT | 1.07 ± 0.078
ACAAGAGGGT | 1.002 ± 0.0051
CGGTTAGGCG | 1.06 ± 0.012
TATAAATTTT | 0.992 ± 0.036
TTTAGGCGGC | 1.03 ± 0.023
GTTCGGATGG | 1.015 ± 0.0032
GGTAAAAAAG | 1 ± 0.028
TTGTCCTTTG | 0.993 ± 0.013
ATGCACGGGC | 1.01 ± 0.047
AAGCCTGGAG | 1.02 ± 0.026
AGCCTTTATC | 1.04 ± 0.011
GTTTGTTGGA | 0.967 ± 0.03
TGGTTGGTTG | 0.988 ± 0.02
ATATATGGGG | 0.987 ± 0.045
AGCGTTTATA | 1.018 ± 0.0013
AGTGTGGTGG | 0.98944 ± 7.4e-05

Sequence | switch fluorescence ratio
TATATTTCGT | 1.03 ± 0.07
TCGGCGAATG | 1.02 ± 0.024
GGGGGCAACA | 0.973 ± 0.03
ATGGGAATTT | 0.996 ± 0.028
TGTAGGGGCT | 0.982 ± 0.026
AGTTGGTAG | 1.02 ± 0.033
CTGCCAGATG | 1.1 ± 0.054
CCCGGCCCAG | 1.05 ± 0.064
GGGTTGAACC | 0.994 ± 0.032
GGATTAGTTT | 0.994 ± 0.029
CGAGCATGTA | 1.168 ± 0.0052
CTTTCGGGGG | 1.14 ± 0.2
TAACTATGTA | 1.02 ± 0.034
GAACAAAGGG | 0.988 ± 0.017
CAGGTGTGGG | 1.2 ± 0.1
AGCCGAATTC | 1.03 ± 0.06
ATCAAAGCGC | 1.03 ± 0.023
GTTATATTGG | 0.992 ± 0.022
TTTATGATGA | 0.971 ± 0.016
TTACGGGGCA | 1.04 ± 0.019
GGTTTTGCCA | 0.995 ± 0.034
CATTTCGGGT | 0.992 ± 0.034
ATGTGGCCTA | 0.986 ± 0.034
TATCTAAATC | 0.9967 ± 0.0063
GGGAGATTGG | 1.09 ± 0.12
